Where a chain is given by its changes, count along the chain named.
T1: human FcγRIIa(H) (human, UniProt P12318 36-217)
T1 construct: also called FcgRIIaH; FcγRIIa type H
T1 sequence: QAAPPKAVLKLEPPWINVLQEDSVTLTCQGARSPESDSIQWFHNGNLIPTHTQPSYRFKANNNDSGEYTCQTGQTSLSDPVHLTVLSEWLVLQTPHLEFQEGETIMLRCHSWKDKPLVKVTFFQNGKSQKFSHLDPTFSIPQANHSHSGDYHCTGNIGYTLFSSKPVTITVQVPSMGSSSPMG

T2: human FcγRIIb (human, UniProt P31994 43-217, limits assumed)
T2 construct: also called FcgRIIb; FcγIIB
T2 sequence: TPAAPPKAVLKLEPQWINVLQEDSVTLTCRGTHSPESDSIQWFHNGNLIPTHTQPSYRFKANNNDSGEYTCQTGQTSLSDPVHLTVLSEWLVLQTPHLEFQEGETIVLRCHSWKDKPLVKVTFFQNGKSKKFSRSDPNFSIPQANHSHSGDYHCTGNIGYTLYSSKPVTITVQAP

T3: human FcγRIIa(R) (human, UniProt P12318 36-217)
T3 construct: also called FcgRIIaR; FcγRIIa type R
T3 chain: T1 sequence with H133R

B1: GpH7-B3/GpL16-k0 variant D270P (antibody, human IgG1)
heavy: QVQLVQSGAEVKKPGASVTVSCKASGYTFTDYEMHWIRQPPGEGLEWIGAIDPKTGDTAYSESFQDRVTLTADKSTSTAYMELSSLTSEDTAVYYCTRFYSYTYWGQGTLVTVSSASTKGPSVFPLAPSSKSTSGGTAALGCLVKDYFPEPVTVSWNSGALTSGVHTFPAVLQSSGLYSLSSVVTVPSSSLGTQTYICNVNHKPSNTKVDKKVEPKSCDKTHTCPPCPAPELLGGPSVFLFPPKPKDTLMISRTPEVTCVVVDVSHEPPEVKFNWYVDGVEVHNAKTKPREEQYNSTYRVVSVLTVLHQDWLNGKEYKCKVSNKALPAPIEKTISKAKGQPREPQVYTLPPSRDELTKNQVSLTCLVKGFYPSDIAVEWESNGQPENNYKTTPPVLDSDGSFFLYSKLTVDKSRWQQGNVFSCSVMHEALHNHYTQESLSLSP
light: DIVMTQSPLSLPVTPGEPASISCQASESLVHSNRNTYLHWYLQKPGQSPQLLIYKVSNRFSGVPDRFSGSGSGTDFTLKISRVEAEDVGVYYCSQNTHVPPTFGQGTKVEIE
notes: also called B3 variant; copies: 2 + 2
B2: GpH7-B3/GpL16-k0 variant P271F (antibody, human IgG1)
heavy: not shown
light: B1 light
notes: as for B1
B3: GpH7-B3/GpL16-k0 variant D270A (antibody, human IgG1)
heavy: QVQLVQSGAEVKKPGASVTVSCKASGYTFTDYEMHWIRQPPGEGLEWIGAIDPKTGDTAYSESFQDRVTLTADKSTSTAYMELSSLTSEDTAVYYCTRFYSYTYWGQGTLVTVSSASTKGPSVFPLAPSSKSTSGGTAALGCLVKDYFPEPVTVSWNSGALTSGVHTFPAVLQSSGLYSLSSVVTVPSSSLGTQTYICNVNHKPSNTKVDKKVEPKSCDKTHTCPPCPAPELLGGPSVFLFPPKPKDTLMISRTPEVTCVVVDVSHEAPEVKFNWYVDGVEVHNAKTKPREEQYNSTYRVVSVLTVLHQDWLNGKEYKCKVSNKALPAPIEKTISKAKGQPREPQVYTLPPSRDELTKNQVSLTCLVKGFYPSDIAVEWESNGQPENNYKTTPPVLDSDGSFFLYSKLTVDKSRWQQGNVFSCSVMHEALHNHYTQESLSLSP
light: B1 light
notes: as for B1
B4: GpH7-B3/GpL16-k0 variant D270N (antibody, human IgG1)
heavy: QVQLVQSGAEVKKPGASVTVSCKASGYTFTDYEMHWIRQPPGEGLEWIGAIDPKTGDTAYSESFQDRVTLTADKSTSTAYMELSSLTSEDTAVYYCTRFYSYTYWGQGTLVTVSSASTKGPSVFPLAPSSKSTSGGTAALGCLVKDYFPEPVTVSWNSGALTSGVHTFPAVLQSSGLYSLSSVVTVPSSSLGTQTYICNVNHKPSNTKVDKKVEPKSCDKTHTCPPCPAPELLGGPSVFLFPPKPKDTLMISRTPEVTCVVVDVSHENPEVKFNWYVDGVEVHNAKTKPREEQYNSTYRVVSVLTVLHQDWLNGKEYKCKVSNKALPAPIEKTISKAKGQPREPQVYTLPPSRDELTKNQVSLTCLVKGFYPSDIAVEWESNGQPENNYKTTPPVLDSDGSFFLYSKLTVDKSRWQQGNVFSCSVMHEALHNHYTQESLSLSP
light: B1 light
notes: as for B1
B5: GpH7-B3/GpL16-k0 variant D270I (antibody, human IgG1)
heavy: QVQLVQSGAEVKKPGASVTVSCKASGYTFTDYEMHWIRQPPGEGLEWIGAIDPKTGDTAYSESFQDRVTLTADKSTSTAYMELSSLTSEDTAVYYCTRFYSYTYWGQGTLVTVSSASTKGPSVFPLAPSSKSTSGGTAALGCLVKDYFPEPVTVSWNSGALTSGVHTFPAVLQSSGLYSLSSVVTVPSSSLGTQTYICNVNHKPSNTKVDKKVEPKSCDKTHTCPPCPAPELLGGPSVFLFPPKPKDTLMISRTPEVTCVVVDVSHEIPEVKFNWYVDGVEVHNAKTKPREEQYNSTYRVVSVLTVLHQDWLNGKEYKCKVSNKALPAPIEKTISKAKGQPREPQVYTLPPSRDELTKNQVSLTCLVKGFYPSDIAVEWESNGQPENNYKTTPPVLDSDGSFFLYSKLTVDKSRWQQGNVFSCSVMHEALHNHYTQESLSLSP
light: B1 light
notes: as for B1
B6: GpH7-B3/GpL16-k0 variant D270W (antibody, human IgG1)
heavy: not shown
light: B1 light
notes: as for B1
B7: GpH7-B3/GpL16-k0 variant D270L (antibody, human IgG1)
heavy: not shown
light: B1 light
notes: as for B1
B8: GpH7-B3/GpL16-k0 variant P271R (antibody, human IgG1)
heavy: not shown
light: B1 light
notes: as for B1
B9: GpH7-B3/GpL16-k0 variant P271H (antibody, human IgG1)
heavy: not shown
light: B1 light
notes: as for B1
B10: GpH7-B3/GpL16-k0 variant D270H (antibody, human IgG1)
heavy: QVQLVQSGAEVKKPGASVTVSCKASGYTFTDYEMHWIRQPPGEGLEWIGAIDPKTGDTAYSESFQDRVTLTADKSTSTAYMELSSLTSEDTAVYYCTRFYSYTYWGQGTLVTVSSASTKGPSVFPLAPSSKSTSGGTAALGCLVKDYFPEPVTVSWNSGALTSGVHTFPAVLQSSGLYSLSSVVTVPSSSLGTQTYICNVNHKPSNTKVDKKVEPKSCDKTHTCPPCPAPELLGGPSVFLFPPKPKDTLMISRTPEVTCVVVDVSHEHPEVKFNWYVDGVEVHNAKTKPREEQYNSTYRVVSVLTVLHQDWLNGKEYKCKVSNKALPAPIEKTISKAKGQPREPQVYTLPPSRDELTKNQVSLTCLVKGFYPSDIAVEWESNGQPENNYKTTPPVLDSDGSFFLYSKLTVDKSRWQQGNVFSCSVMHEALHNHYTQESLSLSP
light: B1 light
notes: as for B1
B11: GpH7-B3/GpL16-k0 variant D270G (antibody, human IgG1)
heavy: not shown
light: B1 light
notes: as for B1
B12: GpH7-B3/GpL16-k0 variant Y296P (antibody, human IgG1)
heavy: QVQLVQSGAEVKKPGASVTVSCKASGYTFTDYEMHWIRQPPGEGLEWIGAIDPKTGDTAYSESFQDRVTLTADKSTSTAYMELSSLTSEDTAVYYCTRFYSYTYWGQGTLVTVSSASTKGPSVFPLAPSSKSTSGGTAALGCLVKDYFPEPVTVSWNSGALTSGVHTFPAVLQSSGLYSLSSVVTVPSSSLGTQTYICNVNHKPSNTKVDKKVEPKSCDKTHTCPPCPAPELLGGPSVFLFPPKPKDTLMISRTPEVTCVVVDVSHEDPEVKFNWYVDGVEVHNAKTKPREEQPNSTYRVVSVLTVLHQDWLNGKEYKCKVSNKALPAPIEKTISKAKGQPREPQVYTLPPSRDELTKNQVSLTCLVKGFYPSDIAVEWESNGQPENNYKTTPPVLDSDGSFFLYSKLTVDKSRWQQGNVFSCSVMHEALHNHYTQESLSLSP
light: B1 light
notes: as for B1
B13: GpH7-B3/GpL16-k0 variant S298W (antibody, human IgG1)
heavy: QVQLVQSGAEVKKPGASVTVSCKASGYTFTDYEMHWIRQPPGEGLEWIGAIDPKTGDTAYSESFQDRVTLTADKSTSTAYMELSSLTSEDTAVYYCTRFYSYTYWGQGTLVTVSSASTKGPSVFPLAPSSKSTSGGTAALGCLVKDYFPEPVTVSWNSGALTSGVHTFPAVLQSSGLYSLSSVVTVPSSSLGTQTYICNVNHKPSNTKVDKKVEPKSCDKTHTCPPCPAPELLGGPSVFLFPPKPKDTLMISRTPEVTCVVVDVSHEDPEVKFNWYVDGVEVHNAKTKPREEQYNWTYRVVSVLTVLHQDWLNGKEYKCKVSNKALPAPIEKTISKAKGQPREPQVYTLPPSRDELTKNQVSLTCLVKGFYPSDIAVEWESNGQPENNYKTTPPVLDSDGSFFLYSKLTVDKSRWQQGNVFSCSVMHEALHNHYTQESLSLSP
light: B1 light
notes: as for B1
B14: GpH7-B3/GpL16-k0 variant D270F (antibody, human IgG1)
heavy: not shown
light: B1 light
notes: as for B1
B15: GpH7-B3/GpL16-k0 variant D270Q (antibody, human IgG1)
heavy: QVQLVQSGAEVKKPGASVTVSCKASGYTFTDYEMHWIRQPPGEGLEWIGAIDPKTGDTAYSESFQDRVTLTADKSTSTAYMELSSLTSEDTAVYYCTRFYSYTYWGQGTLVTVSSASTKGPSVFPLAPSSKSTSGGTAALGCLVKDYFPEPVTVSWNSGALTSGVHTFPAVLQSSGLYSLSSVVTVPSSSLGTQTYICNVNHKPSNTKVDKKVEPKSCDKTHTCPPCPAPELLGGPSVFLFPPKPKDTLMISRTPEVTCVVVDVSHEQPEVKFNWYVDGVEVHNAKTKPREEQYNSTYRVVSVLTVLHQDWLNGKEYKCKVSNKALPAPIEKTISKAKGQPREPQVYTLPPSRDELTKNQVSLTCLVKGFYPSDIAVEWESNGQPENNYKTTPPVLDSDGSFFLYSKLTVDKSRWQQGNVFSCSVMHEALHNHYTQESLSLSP
light: B1 light
notes: as for B1
B16: GpH7-B3/GpL16-k0 variant D270K (antibody, human IgG1)
heavy: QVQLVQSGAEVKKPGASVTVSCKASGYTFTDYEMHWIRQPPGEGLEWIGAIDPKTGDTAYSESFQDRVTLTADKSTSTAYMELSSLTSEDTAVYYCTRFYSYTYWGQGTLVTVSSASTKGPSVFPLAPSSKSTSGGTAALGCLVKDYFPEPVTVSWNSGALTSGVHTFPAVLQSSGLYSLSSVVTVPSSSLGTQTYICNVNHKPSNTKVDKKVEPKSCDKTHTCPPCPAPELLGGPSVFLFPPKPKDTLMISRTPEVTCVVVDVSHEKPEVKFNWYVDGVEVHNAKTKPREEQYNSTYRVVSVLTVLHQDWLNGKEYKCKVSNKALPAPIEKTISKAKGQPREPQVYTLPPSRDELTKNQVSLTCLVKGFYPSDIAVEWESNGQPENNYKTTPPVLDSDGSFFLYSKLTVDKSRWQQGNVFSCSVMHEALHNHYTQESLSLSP
light: B1 light
notes: as for B1
B17: GpH7-B3/GpL16-k0 variant D270M (antibody, human IgG1)
heavy: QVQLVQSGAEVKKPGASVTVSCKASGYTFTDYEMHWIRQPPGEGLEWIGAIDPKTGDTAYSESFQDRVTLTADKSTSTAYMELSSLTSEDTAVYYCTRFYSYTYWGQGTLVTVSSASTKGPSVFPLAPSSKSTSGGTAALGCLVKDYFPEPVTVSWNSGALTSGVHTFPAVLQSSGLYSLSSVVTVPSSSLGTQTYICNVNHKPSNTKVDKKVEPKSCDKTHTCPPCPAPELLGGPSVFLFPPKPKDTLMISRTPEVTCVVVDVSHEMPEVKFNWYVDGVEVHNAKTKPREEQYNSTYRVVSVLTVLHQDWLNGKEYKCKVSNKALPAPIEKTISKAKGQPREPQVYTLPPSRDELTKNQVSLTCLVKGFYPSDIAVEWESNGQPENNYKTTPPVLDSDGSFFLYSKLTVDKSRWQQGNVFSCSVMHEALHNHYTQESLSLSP
light: B1 light
notes: as for B1
B18: GpH7-B3/GpL16-k0 variant D270T (antibody, human IgG1)
heavy: not shown
light: B1 light
notes: as for B1
B19: GpH7-B3/GpL16-k0 variant P271S (antibody, human IgG1)
heavy: not shown
light: B1 light
notes: as for B1
B20: GpH7-B3/GpL16-k0 variant D270V (antibody, human IgG1)
heavy: not shown
light: B1 light
notes: as for B1
B21: GpH7-B3/GpL16-k0 variant D270S (antibody, human IgG1)
heavy: not shown
light: B1 light
notes: as for B1
B22: GpH7-B3/GpL16-k0 variant D270R (antibody, human IgG1)
heavy: not shown
light: B1 light
notes: as for B1
B23: GpH7-B3/GpL16-k0 variant D270Y (antibody, human IgG1)
heavy: not shown
light: B1 light
notes: as for B1

Target: T1, human FcγRIIa(H)
Test: SPR (Biacore), antibody captured, FcγR as analyte; amount bound / that of GpH7-B3/GpL16-k0 x 100;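 note: FcγR binding response divided by the captured antibody amount before comparison, measured at 25 °C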
Method: (§1) Interaction between each modified antibody and Fcγ receptor prepared in the manner described above was analyzed using the BIACORE™ T100 surface plasmon resonance system (GE Healthcare), BIACORE™ T200 surface plasmon resonance system (GE Healthcare), BIACORE™ A100 surface plasmon resonance system or BIACORE™ 4000 surface plasmon resonance system. HBS-EP+(GE Healthcare) was used for the running buffer, and measurements were carried out at 25° C. The chips used were chips in which antigen peptides, Protein A (Thermo Scientific), Protein A/G (Thermo Scientific) or Protein L (ACTIGEN® protein (Alltech or BioVision) were immobilized on the Series S Sensor Chip CM5 (GE Healthcare) or Series S Sensor Chip CM4 (GE Healthcare) by amine coupling, or chips in which preliminarily biotinylated antigen peptides were allowed to interact and then immobilized on the Series S Sensor Chip SA (certified) (GE Healthcare). The target antibodies were captured on these sensor chips, Fcγ receptor diluted with the running buffer was allowed to interact, followed by measurement of the amount of bound antibody. The amounts bound were compared between antibodies. However, since the amount of Fcγ receptor bound depends on the amount of captured antibody, the values used for comparison were first corrected by dividing the amount of Fcγ receptor bound by the captured amount of each antibody. Through reaction with 10 mM glycine-HCl at pH 1.5, the sensor chips were regenerated by washing off antibody captured on the sensor chips and used repeatedly.
(§2) Binding strength was evaluated according to the following method based on the results of analyzing the interaction with each FcγR. […] That value was then further multiplied by 100, and the resulting value was used as an indicator of relative binding activity to each FcγR.

Binder	relative binding activity
B1	0 GpH7-B3/GpL16-k0 = 100
B2	55 GpH7-B3/GpL16-k0 = 100
B3	66 GpH7-B3/GpL16-k0 = 100
B4	34 GpH7-B3/GpL16-k0 = 100
B5	43 GpH7-B3/GpL16-k0 = 100
B6	38 GpH7-B3/GpL16-k0 = 100
B7	61 GpH7-B3/GpL16-k0 = 100
B8	99 GpH7-B3/GpL16-k0 = 100
B9	58 GpH7-B3/GpL16-k0 = 100
B10	53 GpH7-B3/GpL16-k0 = 100
B11	29 GpH7-B3/GpL16-k0 = 100
B12	8 GpH7-B3/GpL16-k0 = 100
B13	17 GpH7-B3/GpL16-k0 = 100
B14	62 GpH7-B3/GpL16-k0 = 100
B15	78 GpH7-B3/GpL16-k0 = 100
B16	16 GpH7-B3/GpL16-k0 = 100
B17	57 GpH7-B3/GpL16-k0 = 100
B18	38 GpH7-B3/GpL16-k0 = 100
B19	67 GpH7-B3/GpL16-k0 = 100
B20	37 GpH7-B3/GpL16-k0 = 100
B21	49 GpH7-B3/GpL16-k0 = 100
B22	11 GpH7-B3/GpL16-k0 = 100
B23	53 GpH7-B3/GpL16-k0 = 100

Target: T4, human FcγRIa (human, UniProt P12314 16-292, limits assumed)
T4 construct: also called FcgRIa; CD64
T4 sequence (P12314 16-292 limits assumed): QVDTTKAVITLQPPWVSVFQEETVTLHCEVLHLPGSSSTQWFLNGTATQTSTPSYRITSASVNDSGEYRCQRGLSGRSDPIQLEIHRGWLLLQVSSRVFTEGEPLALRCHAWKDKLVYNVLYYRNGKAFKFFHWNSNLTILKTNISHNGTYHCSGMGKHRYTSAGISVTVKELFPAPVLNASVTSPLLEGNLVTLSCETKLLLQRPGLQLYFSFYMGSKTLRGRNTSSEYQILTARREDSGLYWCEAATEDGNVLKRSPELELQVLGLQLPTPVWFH
Test: as above
Method: as §1, §2

Binder	relative binding activity
B1	64 GpH7-B3/GpL16-k0 = 100
B2	99 GpH7-B3/GpL16-k0 = 100
B3	87 GpH7-B3/GpL16-k0 = 100
B4	68 GpH7-B3/GpL16-k0 = 100
B5	88 GpH7-B3/GpL16-k0 = 100
B6	74 GpH7-B3/GpL16-k0 = 100
B7	90 GpH7-B3/GpL16-k0 = 100
B8	100 GpH7-B3/GpL16-k0 = 100
B9	98 GpH7-B3/GpL16-k0 = 100
B10	70 GpH7-B3/GpL16-k0 = 100
B11	82 GpH7-B3/GpL16-k0 = 100
B12	45 GpH7-B3/GpL16-k0 = 100
B13	69 GpH7-B3/GpL16-k0 = 100
B14	88 GpH7-B3/GpL16-k0 = 100
B15	82 GpH7-B3/GpL16-k0 = 100
B16	45 GpH7-B3/GpL16-k0 = 100
B17	90 GpH7-B3/GpL16-k0 = 100
B18	81 GpH7-B3/GpL16-k0 = 100
B19	99 GpH7-B3/GpL16-k0 = 100
B20	84 GpH7-B3/GpL16-k0 = 100
B21	73 GpH7-B3/GpL16-k0 = 100
B22	45 GpH7-B3/GpL16-k0 = 100
B23	78 GpH7-B3/GpL16-k0 = 100

Target: T2, human FcγRIIb
Test: as above
Method: as §1, §2

Binder	relative binding activity
B1	1 GpH7-B3/GpL16-k0 = 100
B2	38 GpH7-B3/GpL16-k0 = 100
B3	5 GpH7-B3/GpL16-k0 = 100
B4	-2 GpH7-B3/GpL16-k0 = 100
B5	1 GpH7-B3/GpL16-k0 = 100
B6	-2 GpH7-B3/GpL16-k0 = 100
B7	3 GpH7-B3/GpL16-k0 = 100
B8	87 GpH7-B3/GpL16-k0 = 100
B9	53 GpH7-B3/GpL16-k0 = 100
B10	-2 GpH7-B3/GpL16-k0 = 100
B11	3 GpH7-B3/GpL16-k0 = 100
B12	7 GpH7-B3/GpL16-k0 = 100
B14	5 GpH7-B3/GpL16-k0 = 100
B15	0 GpH7-B3/GpL16-k0 = 100
B16	-5 GpH7-B3/GpL16-k0 = 100
B17	6 GpH7-B3/GpL16-k0 = 100
B18	2 GpH7-B3/GpL16-k0 = 100
B19	82 GpH7-B3/GpL16-k0 = 100
B20	3 GpH7-B3/GpL16-k0 = 100
B21	-1 GpH7-B3/GpL16-k0 = 100
B22	-5 GpH7-B3/GpL16-k0 = 100
B23	-2 GpH7-B3/GpL16-k0 = 100

Target: T5, human FcγRIIIa(F) (human, UniProt P08637 17-208, limits assumed)
T5 construct: also called FcgRIIIaF; FcγRIIIa allotype F158
T5 sequence (P08637 other isoform, or with tags, fused parts or gaps limits assumed): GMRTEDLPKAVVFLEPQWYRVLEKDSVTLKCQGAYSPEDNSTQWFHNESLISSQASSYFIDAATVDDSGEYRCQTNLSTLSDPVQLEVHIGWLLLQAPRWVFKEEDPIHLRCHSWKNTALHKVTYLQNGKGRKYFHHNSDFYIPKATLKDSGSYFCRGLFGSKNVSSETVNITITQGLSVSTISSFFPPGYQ
Test: as above
Method: as §1, §2

Binder	relative binding activity
B1	-1 GpH7-B3/GpL16-k0 = 100
B2	39 GpH7-B3/GpL16-k0 = 100
B3	23 GpH7-B3/GpL16-k0 = 100
B4	13 GpH7-B3/GpL16-k0 = 100
B5	23 GpH7-B3/GpL16-k0 = 100
B6	7 GpH7-B3/GpL16-k0 = 100
B7	33 GpH7-B3/GpL16-k0 = 100
B8	76 GpH7-B3/GpL16-k0 = 100
B9	50 GpH7-B3/GpL16-k0 = 100
B10	11 GpH7-B3/GpL16-k0 = 100
B11	6 GpH7-B3/GpL16-k0 = 100
B13	11 GpH7-B3/GpL16-k0 = 100
B14	12 GpH7-B3/GpL16-k0 = 100
B15	49 GpH7-B3/GpL16-k0 = 100
B16	5 GpH7-B3/GpL16-k0 = 100
B17	29 GpH7-B3/GpL16-k0 = 100
B19	62 GpH7-B3/GpL16-k0 = 100
B20	19 GpH7-B3/GpL16-k0 = 100
B21	17 GpH7-B3/GpL16-k0 = 100
B22	2 GpH7-B3/GpL16-k0 = 100

Target: T3, human FcγRIIa(R)
Test: as above
Method: as §1, §2

Binder	relative binding activity
B1	-3 GpH7-B3/GpL16-k0 = 100
B2	49 GpH7-B3/GpL16-k0 = 100
B3	3 GpH7-B3/GpL16-k0 = 100
B4	-1 GpH7-B3/GpL16-k0 = 100
B5	3 GpH7-B3/GpL16-k0 = 100
B6	-2 GpH7-B3/GpL16-k0 = 100
B7	6 GpH7-B3/GpL16-k0 = 100
B8	89 GpH7-B3/GpL16-k0 = 100
B9	58 GpH7-B3/GpL16-k0 = 100
B10	0 GpH7-B3/GpL16-k0 = 100
B11	3 GpH7-B3/GpL16-k0 = 100
B12	10 GpH7-B3/GpL16-k0 = 100
B13	19 GpH7-B3/GpL16-k0 = 100
B14	5 GpH7-B3/GpL16-k0 = 100
B15	2 GpH7-B3/GpL16-k0 = 100
B16	-4 GpH7-B3/GpL16-k0 = 100
B17	7 GpH7-B3/GpL16-k0 = 100
B18	1 GpH7-B3/GpL16-k0 = 100
B19	83 GpH7-B3/GpL16-k0 = 100
B20	1 GpH7-B3/GpL16-k0 = 100
B21	0 GpH7-B3/GpL16-k0 = 100
B22	-5 GpH7-B3/GpL16-k0 = 100
B23	-2 GpH7-B3/GpL16-k0 = 100

— patent US20230257470A1 (published 2023)
